Assay [1] concerns the target T1, SARS-CoV S trimer (ectodomain) (SARS-CoV, UniProt P59594 14-1195). The assay can be described thus: SPR. (In SPR one partner is held on a chip, and binding of the other changes the refractive index at the surface.)
For assay [2], the target named is T1, SARS-CoV S trimer (ectodomain). The assay can be described thus: SPR. The source holds these as a separate data set.

B1: COVA1-16 (antibody, V domains shown)
VH: QVQLVQSGAEVKKPGASVKVSCKASGYTFTSYYMHWVRQAPGQGLEWMGIINSSGGSTSYAQKFQGRVTMTRDTSTSTVYMELSSLRSEDTAVYYCARPPRNYYDRSGYYQRAEYFQHWGQGTLVTVSS
VL: DIQLTQSPSSLSASVGDRVTITCQASQDISNYLNWYQQRPGKAPKLLIYDASNLETGVPSRFSGSGSGTDFTFTISSLQPEDIATYYCQQYDNPPLTFGGGTKLEIK
As for B1, the koff – broadly, the first-order rate constant of dissociation – in assay [1] came out at 0.0032 s⁻¹. In addition, in assay [2], binding was characterised by a dissociation constant (Kd) of 19.5 nM.

These data come from PMC9017343 (2022).
